Source: patent US20050181997A1

Molecular target: Flt3 3T3 cells (mFlt3/fms 3T3 cells and/or Stk 3T3 cells)
Assay: cell-based or functional assay

Specific Activity (u/mg) in the Flt3 3T3 assay, Superdex 75 step: 244000 u/mg
Substance: Pv-FRIL (FRIL family member from Phaseolus vulgaris, red kidney bean)
